Test results: US20260008815A1, “CYCLIC PEPTIDE OR SALT THEREOF, AND USES THEREOF” (FUJIFILM Corporation, priority 2023, published 2026)
Bridge positions count the residues as written; N and C are the ends. Ends that are not written are not given here. COCH2 = acetyl group that carries the bridge

Molecular target: T1, Recombinant Human FGFR2 alpha (IIIc) Fc Chimera Protein, CF (R&D systems, 712-FR-050) (human, UniProt P21802 22-377)
T1 construct: bought; not shown: Fc part of the chimera
Assay: ELISA on plate-bound FGFR2-Fc
Outline: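 Plate-immobilized FGFR2 alpha (IIIc)-Fc (5 ng/well) incubated with peptide 3 h at room temperature, then anti-Myc antibody 2 h and chemiluminescent ELISA substrate. Signal corrected by subtracting FGFR-free wells; binding affinity scored into categories from the dose-response.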

T1 sequence (P21802 22-377, change not shown): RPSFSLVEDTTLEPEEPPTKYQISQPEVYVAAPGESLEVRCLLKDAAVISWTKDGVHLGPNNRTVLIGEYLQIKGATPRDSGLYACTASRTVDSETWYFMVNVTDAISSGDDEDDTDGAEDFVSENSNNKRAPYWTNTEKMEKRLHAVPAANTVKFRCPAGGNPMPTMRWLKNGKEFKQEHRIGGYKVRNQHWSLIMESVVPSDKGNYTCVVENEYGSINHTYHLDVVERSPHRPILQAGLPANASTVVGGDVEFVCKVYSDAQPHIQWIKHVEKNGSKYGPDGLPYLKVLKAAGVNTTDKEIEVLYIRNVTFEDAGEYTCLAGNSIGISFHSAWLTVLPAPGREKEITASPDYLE

SCIQQNYFWQYVFERYRYK(COCH2)Q (thioether 2-19 (inferred)) [cyclic peptide SEQ ID NO: 46] and QCPQNFINPVQWRYFQHYK(COCH2)N (thioether 2-19 (inferred)) [cyclic peptide SEQ ID NO: 80] cannot be ordered by “ELISA luminescence signal at 10 nmol/L peptide, relative to SEQ ID NO: 47 (=1)” value: 0.5 to 0.7 ratio for the first, no less than 0.7 ratio for the second.

KCPQNFINPVQWRYFQHYKN (thioether ring (C)-(K(acetyl))) [cyclic peptide SEQ ID NO: 47] and KCPQNFINPVQWRYFQHYKA (not fully specified; thioether ring (C)-(K(acetyl))) [cyclic peptide SEQ ID NO: 67] cannot be ordered by “ELISA luminescence signal at 10 nmol/L peptide, relative to SEQ ID NO: 47 (=1)” value: no less than 0.7 ratio for the first, no less than 0.7 ratio for the second.

KCPQNFINPVQWRYFAHYKN (not fully specified; thioether ring (C)-(K(acetyl))) [cyclic peptide SEQ ID NO: 65] and ACPQNFINPVQWRYFQHYK(COCH2)N (thioether 2-19 (inferred)) [cyclic peptide SEQ ID NO: 53] cannot be ordered by “ELISA luminescence signal at 10 nmol/L peptide, relative to SEQ ID NO: 47 (=1)” value: no less than 0.7 ratio for the first, no less than 0.7 ratio for the second.

ICPQNFINPVQWRYFQHYK(COCH2)N (thioether 2-19 (inferred)) [cyclic peptide SEQ ID NO: 74] and SCPQNFINPVQWRYFQHYK(COCH2)N (thioether 2-19 (inferred)) [cyclic peptide SEQ ID NO: 81] cannot be ordered by “ELISA luminescence signal at 10 nmol/L peptide, relative to SEQ ID NO: 47 (=1)” value: no less than 0.7 ratio for the first, no less than 0.7 ratio for the second.

KCPQNFINPVQWAYFQHYKN (not fully specified; thioether ring (C)-(K(acetyl))) [cyclic peptide SEQ ID NO: 63] and KCPQNFINPAQWRYFQHYKN (not fully specified; thioether ring (C)-(K(acetyl))) [cyclic peptide SEQ ID NO: 61] cannot be ordered by “ELISA luminescence signal at 10 nmol/L peptide, relative to SEQ ID NO: 47 (=1)” value: no less than 0.7 ratio for the first, no less than 0.7 ratio for the second.

First: VCPQNFINPVQWRYFQHYK(COCH2)N (thioether 2-19 (inferred)) [cyclic peptide SEQ ID NO: 75]
Second: KCPQAFINPVQWRYFQHYKN (thioether ring (C)-(K(acetyl))) [cyclic peptide SEQ ID NO: 56]
The “ELISA luminescence signal at 10 nmol/L peptide, relative to SEQ ID NO: 47 (=1)” value of the first is higher: no less than 0.7 ratio for the first, 0.1 to 0.5 ratio for the second.

LCPQNFINPVQWRYFQHYK(COCH2)N (thioether 2-19 (inferred)) [cyclic peptide SEQ ID NO: 73] and KCPQNFINPVQWRAFQHYKN (not fully specified; thioether ring (C)-(K(acetyl))) [cyclic peptide SEQ ID NO: 64] cannot be ordered by “ELISA luminescence signal at 10 nmol/L peptide, relative to SEQ ID NO: 47 (=1)” value: no less than 0.7 ratio for the first, 0.5 to 0.7 ratio for the second.

KCPQNFIAPVQWRYFQHYKN (not fully specified; thioether ring (C)-(K(acetyl))) [cyclic peptide SEQ ID NO: 59] and PCPQNFINPVQWRYFQHYK(COCH2)N (thioether 2-19 (inferred)) [cyclic peptide SEQ ID NO: 72] cannot be ordered by “ELISA luminescence signal at 10 nmol/L peptide, relative to SEQ ID NO: 47 (=1)” value: 0.5 to 0.7 ratio for the first, no less than 0.7 ratio for the second.

Compared with KCPQNFINPVQARYFQHYKN (not fully specified; thioether ring (C)-(K(acetyl))) [cyclic peptide SEQ ID NO: 62], NCPQNFINPVQWRYFQHYK(COCH2)N (thioether 2-19 (inferred)) [cyclic peptide SEQ ID NO: 79] is higher in “ELISA luminescence signal at 10 nmol/L peptide, relative to SEQ ID NO: 47 (=1)” value: 0.1 to 0.5 ratio for the first, no less than 0.7 ratio for the second.

FCPQNFINPVQWRYFQHYK(COCH2)N (thioether 2-19 (inferred)) [cyclic peptide SEQ ID NO: 76] and KCPQNFINPVQWRYFQAYKN (not fully specified; thioether ring (C)-(K(acetyl))) [cyclic peptide SEQ ID NO: 66] cannot be ordered by “ELISA luminescence signal at 10 nmol/L peptide, relative to SEQ ID NO: 47 (=1)” value: no less than 0.7 ratio for the first, no less than 0.7 ratio for the second.

WCPQNFINPVQWRYFQHYK(COCH2)N (thioether 2-19 (inferred)) [cyclic peptide SEQ ID NO: 78] and KCPQNFINAVQWRYFQHYKN (not fully specified; thioether ring (C)-(K(acetyl))) [cyclic peptide SEQ ID NO: 60] cannot be ordered by “ELISA luminescence signal at 10 nmol/L peptide, relative to SEQ ID NO: 47 (=1)” value: no less than 0.7 ratio for the first, no less than 0.7 ratio for the second.

KCPQNAINPVQWRYFQHYKN (thioether ring (C)-(K(acetyl))) [cyclic peptide SEQ ID NO: 57] and YCPQNFINPVQWRYFQHYK(COCH2)N (thioether 2-19 (inferred)) [cyclic peptide SEQ ID NO: 77] cannot be ordered by “ELISA luminescence signal at 10 nmol/L peptide, relative to SEQ ID NO: 47 (=1)” value: 0.5 to 0.7 ratio for the first, no less than 0.7 ratio for the second.

GCPQNFINPVQWRYFQHYK(COCH2)N (thioether 2-19 (inferred)) [cyclic peptide SEQ ID NO: 71] and KCPQNFANPVQWRYFQHYKN (thioether ring (C)-(K(acetyl))) [cyclic peptide SEQ ID NO: 58] cannot be ordered by “ELISA luminescence signal at 10 nmol/L peptide, relative to SEQ ID NO: 47 (=1)” value: no less than 0.7 ratio for the first, 0.5 to 0.7 ratio for the second.

KCAQNFINPVQWRYFQHYKN (thioether ring (C)-(K(acetyl))) [cyclic peptide SEQ ID NO: 54] and KCPANFINPVQWRYFQHYKN (thioether ring (C)-(K(acetyl))) [cyclic peptide SEQ ID NO: 55] cannot be ordered by “ELISA luminescence signal at 10 nmol/L peptide, relative to SEQ ID NO: 47 (=1)” value: no less than 0.7 ratio for the first, no less than 0.7 ratio for the second.

TCPQNFRDELQFTYFTQYK(COCH2)Y (thioether 2-19 (inferred)) [cyclic peptide SEQ ID NO: 45] and ACEYNYWNQVQFTFLIAFK(COCH2)R (thioether 2-19 (inferred)) [cyclic peptide SEQ ID NO: 44] cannot be ordered by “ELISA luminescence signal at 10 nmol/L peptide, relative to SEQ ID NO: 47 (=1)” value: no less than 0.7 ratio for the first, 0.5 to 0.7 ratio for the second.

Compared with YCEENYLDPMQYQYFIYFK(COCH2)Y (thioether 2-19) [cyclic peptide SEQ ID NO: 354], YCEENYLDPEQYQMFIYFK(COCH2)Y (thioether 2-19) [cyclic peptide SEQ ID NO: 357] is lower in “ELISA luminescence signal at 10 nmol/L peptide, relative to SEQ ID NO: 47 (=1)” value: no less than 0.7 ratio for the first, 0.1 to 0.5 ratio for the second.

YCEENYLDPEQYQYFHYFK(COCH2)R (thioether 2-19) [cyclic peptide SEQ ID NO: 390] and YCEENYLDPEQMQYFIYFK(COCH2)Y (thioether 2-19) [cyclic peptide SEQ ID NO: 355] fall in the same range of “ELISA luminescence signal at 10 nmol/L peptide, relative to SEQ ID NO: 47 (=1)” value: 0.1 to 0.5 ratio for the first, 0.1 to 0.5 ratio for the second.

Compared with YCHENYLDPEQHQYFHYFK(COCH2)Y (thioether 2-19) [cyclic peptide SEQ ID NO: 393], YCHENYLDPEQYQYFHYFK(COCH2)H (thioether 2-19) [cyclic peptide SEQ ID NO: 395] is higher in “ELISA luminescence signal at 10 nmol/L peptide, relative to SEQ ID NO: 47 (=1)” value: 0.1 to 0.5 ratio for the first, no less than 0.7 ratio for the second.

YCEENYLDPEQYQYFHYFK(COCH2)H (thioether 2-19) [cyclic peptide SEQ ID NO: 391] and YCEENYLDPEQHQYFIYFK(COCH2)R (thioether 2-19) [cyclic peptide SEQ ID NO: 396] cannot be ordered by “ELISA luminescence signal at 10 nmol/L peptide, relative to SEQ ID NO: 47 (=1)” value: no less than 0.7 ratio for the first, 0.5 to 0.7 ratio for the second.

YCEENYLDPEQYMYFIYFK(COCH2)Y (thioether 2-19) [cyclic peptide SEQ ID NO: 356] and YCEENYLDPEQYQYFIYFK(COCH2)M (thioether 2-19) [cyclic peptide SEQ ID NO: 360] cannot be ordered by “ELISA luminescence signal at 10 nmol/L peptide, relative to SEQ ID NO: 47 (=1)” value: no less than 0.7 ratio for the first, no less than 0.7 ratio for the second.

YCHENYLDPEQYQYFHYFK(COCH2)R (thioether 2-19) [cyclic peptide SEQ ID NO: 394] and YCEENYLDPEQYQYFIMFK(COCH2)Y (thioether 2-19) [cyclic peptide SEQ ID NO: 359] cannot be ordered by “ELISA luminescence signal at 10 nmol/L peptide, relative to SEQ ID NO: 47 (=1)” value: 0.5 to 0.7 ratio for the first, no less than 0.7 ratio for the second.

YCHENYLDPEQYQYFHYFK(COCH2)Y (thioether 2-19) [cyclic peptide SEQ ID NO: 392] and YCEENYLDPEQHQYFIYFK(COCH2)H (thioether 2-19) [cyclic peptide SEQ ID NO: 397] cannot be ordered by “ELISA luminescence signal at 10 nmol/L peptide, relative to SEQ ID NO: 47 (=1)” value: no less than 0.7 ratio for the first, no less than 0.7 ratio for the second.

YCHENYLDPEQHQYFIYFK(COCH2)R (thioether 2-19) [cyclic peptide SEQ ID NO: 398] and YCEENYLDPEQYQYFMYFK(COCH2)Y (thioether 2-19) [cyclic peptide SEQ ID NO: 358] cannot be ordered by “ELISA luminescence signal at 10 nmol/L peptide, relative to SEQ ID NO: 47 (=1)” value: 0.5 to 0.7 ratio for the first, no less than 0.7 ratio for the second.
